Results: US10202593B2, “Evolved sortases and uses thereof” (President and Fellows of Harvard College, priority 2013, dated 2019)
Positions count from the first letter of the chain named. Names and notes keep the numbering of the source.

T1: fetuin A in human plasma (Homo sapiens, UniProt P02765)
T1 construct: site-specific modification of endogenous fetuin A in human plasma; tissue VWR 89347-902; host or cells: normal human plasma
T1 sequence (P02765 19-367): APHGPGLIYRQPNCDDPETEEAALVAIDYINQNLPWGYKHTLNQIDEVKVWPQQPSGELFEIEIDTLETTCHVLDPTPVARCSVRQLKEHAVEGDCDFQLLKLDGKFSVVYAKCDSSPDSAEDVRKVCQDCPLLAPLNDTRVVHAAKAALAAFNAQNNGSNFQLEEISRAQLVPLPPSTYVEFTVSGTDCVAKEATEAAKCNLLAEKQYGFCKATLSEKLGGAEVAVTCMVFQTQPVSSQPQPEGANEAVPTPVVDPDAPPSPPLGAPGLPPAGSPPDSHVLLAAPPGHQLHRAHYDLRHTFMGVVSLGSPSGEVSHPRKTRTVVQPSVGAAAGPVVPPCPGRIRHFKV

B1: eSrtA (protein)
chain: QAKPQIPKDKSKVAGYIEIPDADIKEPVYPGPATREQLNRGVSFAEENESLDDQNISIAGHTFIDRPNYQFTNLKAAKKGSMVYFKVGNETRKYKMTSIRNVKPTAVEVLDEQKGKDKQLTLITCDDYNEETGVWETRKIFVATEVK
B2: eSrtA(4S-9): P94R, N98D, S102C, A104V, A118T, F122A, K134R, F144L, D160N, D165A, I182V, E189F, K190E, K196T (protein)
chain: B1 chain with N39D, S43C, A45V, A59T, F63A, K75R, F85L, I123V, E130F

Biological target: T1, fetuin A in human plasma
Assay: Plasma labeling of fetuin A with GGGK(biotin)
Type: biochemical
Details: for overall conjugation efficiency in human plasma (fetuin A, densitometry): 2 hours, room temperature
Experimental: FIG. 21A-D show applications of evolved sortases. (A) N- and C-terminal labeling of fibroblast growth factors FGF1 and FGF2. Tandem SUMO-TEV cleavage site-FGF1/2-LPESG-His6 (SEQ ID NO: 27) constructs were treated with eSrtA(4S-9) in the presence of GGG-PEG, then with eSrtA(2A-9) and TEV protease in the presence of Alexa Fluor750-LAETGG (SEQ ID NO: 35) and purified to afford the final conjugates in up to 20% yield (Table 3). The crude reactions were analyzed by SDS-PAGE and scanned for fluorescence at 700 nm. (B) Surface functionalization using eSrtA(2A-9) and eSrtA(4S-9). 96-well plates coated with GGG-PEG (5 kDa) were incubated with enzyme and Alexa Flur 488-LAETG (SEQ ID NO: 5; green) or Alexa Fluor 647-LPESG (SEQ ID NO: 3; red) for 2 hours, then washed three times. The total fluorescence of the resulting surfaces was measured at 488 nm or 647 nm, then normalized to the fluorescent intensities obtained from the samples containing eSrtA(2A-9)+488-LAETG (SEQ ID NO: 5) or eSrt(4S-9)+647-LPESG (SEQ ID NO: 3). (C, D) Treatment of human plasma with evolved SrtA variants for 2 hours at room temperature in the presence of GGGK(biotin) (SEQ ID NO: 22) with or without 10 mM CaCl2. […] Biotin capture and mass spectrometry identified this protein as fetuin A, confirmed by subsequent Western blot (D).
Normal human plasma was purchased from VWR (part number 89347-902) and stored at −20° C. For all reactions, an aliquot was thawed at 37° C. for 15 minutes, then vortexed to resuspend any coagulated material. To this sample was added 2 μL of 0.1 M GGGK(biotin) (SEQ ID NO: 22) for analytical reactions. Higher concentrations of GGGK(biotin) (SEQ ID NO: 22) were avoided for analytical purposes, as they caused increased background in downstream Western blotting. 10 μL of 1 M CaCl2 was added in cases of calcium supplementation. Reactions were initiated by the addition of 10 μL of 100 μM eSrtA, eSrtA(2A-9), or eSrtA(4S-9) and incubated at room temperature for 2 hours. Reactions were quenched by 10:1 dilution into SDS-PAGE loading buffer, followed by a 10 minute incubation at 95° C. These samples were then run on 4-12% Bis-Tris PAGE gels, blotted to PVDF membrane using the iBlot2 dry blotting system, blocked with Pierce Superblock buffer for 1 hour followed by incubation with 1:500 dilutions of Abcam α-Fetuin A antibody (MM0273-6M23) in Superblock buffer with 0.1% Tween-20 for 1 hour. The blot was then washed 3 times with PBS+0.1% Tween-20, then incubated again in 1:15,000 LiCor goat antimouse 680+1:15,000 Licor Streptavidin-800 in Superblock buffer with 0.1% Tween and 0.01% SDS added for 45 minutes. The blot was then washed 3 times with PBS+0.1% Tween and visualized on an Odyssey IR imager.
As in analytical labeling of Fetuin A, 1 mL of normal human plasma was combined with 10 μL 1M CaCl2, 10 μL of 0.1M GGGK(Biotin) (SEQ ID NO: 22), and 10 μL of 100 μM eSrtA(4S-9), then incubated at room temperature for 2 hours. 100 μL of pre-equilibrated Ni-NTA resin slurry and 12.5 μL 0.4M H2N-LPESGG (SEQ ID NO: 38) peptide was added to the mixture to act as a competitive inhibitor for thioester formation. The mixture was incubated at room temperature with shaking for 15 minutes, then filtered through a 0.2 μm spin filter before dilution to 10 mL final volume in PBS+1 mM EDTA+100 μM H2N-LPESGG (SEQ ID NO: 38) (PBS-EL). The solution was concentrated using a 10 kDa molecular weight cutoff spin concentrator for 20 minutes at 3500×g and a final volume of <1 mL. […]

[1] = presence of supplemental calcium (10 mM CaCl2)

Molecule	fetuin A conjugation efficiency lower than that of eSrtA(4S-9) (10 mM added CaCl2) [fold]	overall conjugation efficiency in human plasma (fetuin A, densitometry) [1] [%]	processing of fetuin A (without supplemental calcium)	overall conjugation efficiency in human plasma (fetuin A, densitometry) (absence of supplemental calcium) [%]
B1	90	0.6	no processing	
B2		57.6		1.8
